Where a chain is given by its changes, count along the chain named.
T1: Human PTK7 Protein, His Tag, Acro Biosystems (human, UniProt Q13308 31-704)
T1 construct: Bought recombinant protein; also called CCK4; not shown: His tag
T1 sequence: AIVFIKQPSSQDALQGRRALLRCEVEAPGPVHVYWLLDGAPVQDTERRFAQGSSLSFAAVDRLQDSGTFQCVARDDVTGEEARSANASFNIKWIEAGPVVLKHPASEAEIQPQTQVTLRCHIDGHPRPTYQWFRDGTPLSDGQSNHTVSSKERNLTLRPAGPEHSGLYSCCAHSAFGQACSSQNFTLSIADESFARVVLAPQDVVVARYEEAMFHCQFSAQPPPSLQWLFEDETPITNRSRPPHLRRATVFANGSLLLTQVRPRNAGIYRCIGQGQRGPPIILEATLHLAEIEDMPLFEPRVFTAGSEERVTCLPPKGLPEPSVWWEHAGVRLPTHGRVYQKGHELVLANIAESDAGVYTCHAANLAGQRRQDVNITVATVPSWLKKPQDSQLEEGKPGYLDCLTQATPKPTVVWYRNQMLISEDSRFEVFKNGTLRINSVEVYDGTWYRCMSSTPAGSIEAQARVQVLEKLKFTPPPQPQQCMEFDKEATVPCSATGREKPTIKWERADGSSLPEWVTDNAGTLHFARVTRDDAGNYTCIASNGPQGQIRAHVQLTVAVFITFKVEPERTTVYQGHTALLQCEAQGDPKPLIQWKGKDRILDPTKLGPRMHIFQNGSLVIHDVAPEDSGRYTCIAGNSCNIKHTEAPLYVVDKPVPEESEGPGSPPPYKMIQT

T2: Human PTK7 Protein, His Tag (Acro Biosystems) (human, UniProt Q13308 31-704)
T2 construct: Bought recombinant protein; also called CCK4; tyrosine-protein kinase-like 7; not shown: His tag
T2 sequence: T1 sequence

B1: MYT10885 (antibody, V domains shown)
VH: EVQLVESGGGLVQPGGSLRLSCTASHFSLSNYVMNWVRQAPGKGLEWVGIIDSSGSTYYASWAKGRFTISRDTSKNTVYLQMNSLRAEDTAVYFCARGLYLWGQGTLVTVSS
VL: EIVMTQSPSTLSASVGDRVIITCQSSQSVYNNNLLAWYQQKPGKAPKLLIYYTSNLASGVPSRFSGSGSGAEFTLTISSLQPDDFATYYCQGGYNGNIYAFGQGTKLTVL
notes: MYT9345 variant, His at VH pos 26 (H1 01)
B2: MYT10886 (antibody, V domains shown)
VH: B1 VH with H26G, F27H
VL: B1 VL
notes: MYT9345 variant, His at VH pos 27 (H1 02)
B3: MYT10887 (antibody, V domains shown)
VH: B1 VH with H26G, S28H
VL: B1 VL
notes: MYT9345 variant, His at VH pos 28 (H1 03)
B4: MYT10890 (antibody, V domains shown)
VH: B1 VH with H26G, N31H
VL: B1 VL
notes: MYT9345 variant, His at VH pos 31 (H1 06)
B5: MYT10893 (antibody, V domains shown)
VH: B1 VH with H26G, M34H
VL: B1 VL
notes: MYT9345 variant, His at VH pos 34 (H1 09)
B6: MYT10894 (antibody, V domains shown)
VH: B1 VH with H26G, N35H
VL: B1 VL
notes: MYT9345 variant, His at VH pos 35 (H1 10)
B7: MYT10900 (antibody, V domains shown)
VH: B1 VH with H26G, G55H
VL: B1 VL
notes: MYT9345 variant, His at VH pos 55 (H2 06)
B8: MYT10901 (antibody, V domains shown)
VH: B1 VH with H26G, S56H
VL: B1 VL
notes: MYT9345 variant, His at VH pos 56 (H2 07)
B9: MYT10902 (antibody, V domains shown)
VH: B1 VH with H26G, T57H
VL: B1 VL
notes: MYT9345 variant, His at VH pos 57 (H2 08)
B10: MYT10904 (antibody, V domains shown)
VH: B1 VH with H26G, Y59H
VL: B1 VL
notes: MYT9345 variant, His at VH pos 59 (H2 10)
B11: MYT10906 (antibody, V domains shown)
VH: B1 VH with H26G, S61H
VL: B1 VL
notes: MYT9345 variant, His at VH pos 61 (H2 12)
B12: MYT10907 (antibody, V domains shown)
VH: B1 VH with H26G, W62H
VL: B1 VL
notes: MYT9345 variant, His at VH pos 62 (H2 13)
B13: MYT10908 (antibody, V domains shown)
VH: B1 VH with H26G, A63H
VL: B1 VL
notes: MYT9345 variant, His at VH pos 63 (H2 14)
B14: MYT10909 (antibody, V domains shown)
VH: B1 VH with H26G, K64H
VL: B1 VL
notes: MYT9345 variant, His at VH pos 64 (H2 15)
B15: MYT10910 (antibody, V domains shown)
VH: B1 VH with H26G, G65H
VL: B1 VL
notes: MYT9345 variant, His at VH pos 65 (H2 16)
B16: MYT10912 (antibody, V domains shown)
VH: B1 VH with H26G, R97H
VL: B1 VL
notes: MYT9345 variant, His at VH pos 97 (H3 02)
B17: MYT10914 (antibody, V domains shown)
VH: B1 VH with H26G, L99H
VL: B1 VL
notes: MYT9345 variant, His at VH pos 99 (H3 04)
B18: MYT10915 (antibody, V domains shown)
VH: B1 VH with H26G, Y100H
VL: B1 VL
notes: MYT9345 variant, His at VH pos 100 (H3 05)
B19: MYT11364 (antibody, V domains shown)
VH: EVQLVESGGGLVQPGGSLRLSCTASGIDLSNYAVIWVRQAPGKGLEWVGIIYTYDTTYYANWAKHRFTISRDTSKNTVYLQMNSLRAEDTAVYFCARSFSDISDLIKLWGQGTLVTVSS
VL: EIVMTQSPSTLSASVGDRVIITCQASQSLYNNKDLAWYQQKPGKAPKLLIYEASKLASGVPSRFSGSGSGAEFTLTISSLQPDDFATYYCLGEFSCGSGDCLAFGQGTKLTVL
notes: MYT9797 HC variant; captured via anti-human Fc
B20: MYT11366 (antibody, V domains shown)
VH: B19 VH with H65G, R97H
VL: B19 VL
notes: as for B19
B21: MYT11368 (antibody, V domains shown)
VH: B19 VH with H65G, F99H
VL: B19 VL
notes: as for B19
B22: MYT11375 (antibody, V domains shown)
VH: B19 VH with H65G, I106H
VL: B19 VL
notes: as for B19
B23: MYT11377 (antibody, V domains shown)
VH: B19 VH with H65G, L108H
VL: B19 VL
notes: as for B19
B24: MYT11379 (antibody, V domains shown)
VH: B19 VH with D28A, H65G
VL: B19 VL
notes: MYT9797 HC alanine variant; captured via anti-human Fc
B25: MYT11383 (antibody, V domains shown)
VH: B19 VH with H65G
VL: B19 VL with Q24H
notes: MYT9797 LC variant; captured via anti-human Fc
B26: MYT11385 (antibody, V domains shown)
VH: B19 VH with H65G
VL: B19 VL with S26H
notes: as for B25
B27: MYT11386 (antibody, V domains shown)
VH: B19 VH with H65G
VL: B19 VL with Q27H
notes: as for B25
B28: MYT11387 (antibody, V domains shown)
VH: B19 VH with H65G
VL: B19 VL with S28H
notes: as for B25
B29: MYT11391 (antibody, V domains shown)
VH: B19 VH with H65G
VL: B19 VL with N32H
notes: as for B25
B30: MYT11399 (antibody, V domains shown)
VH: B19 VH with H65G
VL: B19 VL with K55H
notes: as for B25
B31: MYT11400 (antibody, V domains shown)
VH: B19 VH with H65G
VL: B19 VL with L56H
notes: as for B25
B32: MYT11401 (antibody, V domains shown)
VH: B19 VH with H65G
VL: B19 VL with A57H
notes: as for B25
B33: MYT11402 (antibody, V domains shown)
VH: B19 VH with H65G
VL: B19 VL with S58H
notes: as for B25
B34: MYT11403 (antibody, V domains shown)
VH: B19 VH with H65G
VL: B19 VL with L91H
notes: as for B25
B35: MYT11408 (antibody, V domains shown)
VH: B19 VH with H65G
VL: B19 VL with G97H
notes: as for B25
B36: MYT11413 (antibody, V domains shown)
VH: B19 VH with H65G
VL: B19 VL with A103H
notes: as for B25
B37: MYT11414 (antibody, V domains shown)
VH: B19 VH with H65G
VL: B19 VL with T111E, V112I, L113K
notes: captured via anti-human Fc
B38: MYT11419 (antibody, V domains shown)
VH: B19 VH with H65G
VL: B19 VL with E93A
notes: MYT9797 LC alanine variant; captured via anti-human Fc
B39: MYT11420 (antibody, V domains shown)
VH: B19 VH with H65G
VL: B19 VL with D100A
notes: as for B38

biological target: T1, Human PTK7 Protein, His Tag, Acro …; test: BLI (Octet), antibody on anti-human Fc sensor, 50 nM PTK7 at pH 7.4, dissociation at pH 7.4 or 5.4; 2 = substantially similar binding relative to parent

Row | Binder | binding result
1 | B1 | binds
2 | B2 | binds
3 | B3 | binds
4 | B4 | binds
5 | B5 | binds
6 | B6 | binds
7 | B7 | binds
8 | B8 | binds
9 | B9 | binds
10 | B10 | binds
11 | B11 | binds
12 | B12 | binds
13 | B13 | binds
14 | B14 | binds
15 | B15 | binds
16 | B16 | binds
17 | B17 | binds
18 | B18 | binds

biological target: T2, Human PTK7 Protein, His Tag (Acro …); test: BLI, antibody on anti-human Fc sensor, 50 nM PTK7 at pH 7.4, dissociation at pH 7.4 or 5.4; 2 = substantially similar binding relative to parent

Row | Binder | binding result
19 | B19 | binds
20 | B20 | binds
21 | B21 | binds
22 | B22 | binds
23 | B23 | binds
24 | B24 | binds
25 | B25 | binds
26 | B26 | binds
27 | B27 | binds
28 | B28 | binds
29 | B29 | binds
30 | B30 | binds
31 | B31 | binds
32 | B32 | binds
33 | B33 | binds
34 | B34 | binds
35 | B35 | binds
36 | B36 | binds
37 | B37 | binds
38 | B38 | binds
39 | B39 | binds
